{"source": "paper PMC8034659", "binders": {"B1": {"name": "five RK2 iterons (ItT/ItB) (dsDNA)", "DNA 1": "CCTGCGGTATTGACACTTGAGGGGCGCGACTACTGACAGATGAGGGGCGCGATCCTTGACACTTGAGGGGCAGAGTGATGACAGATGAGGGGCGCACCTATTGACATTTGAGGGGCTGTCCACAGGCAG", "DNA 2": "CTGCCTGTGGACAGCCCCTCAAATGTCAATAGGTGCGCCCCTCATCTGTCATCACTCTGCCCCTCAAGTGTCAAGGATCGCGCCCCTCATCTGTCAGTAGTCGCGCCCCTCAAGTGTCAATACCGCAGG"}}, "test_in_all_cases": "SPR", "key": {"TrfA E361K": {"molecular_target": "T1, TrfA E361K (plasmid RK2, UniProt P07676 98-382, G254D;S267L;E361K)", "T1 sequence": "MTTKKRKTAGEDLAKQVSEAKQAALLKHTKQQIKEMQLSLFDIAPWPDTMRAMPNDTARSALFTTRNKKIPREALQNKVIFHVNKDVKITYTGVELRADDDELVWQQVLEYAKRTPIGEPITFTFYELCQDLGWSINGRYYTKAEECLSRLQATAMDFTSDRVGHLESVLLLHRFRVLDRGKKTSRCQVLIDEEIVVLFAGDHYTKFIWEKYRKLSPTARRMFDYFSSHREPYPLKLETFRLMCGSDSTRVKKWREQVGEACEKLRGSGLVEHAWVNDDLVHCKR"}, "TrfA R347E": {"molecular_target": "T2, TrfA R347E (plasmid RK2, UniProt P07676 98-382, G254D;S267L;R347E)", "T2 sequence": "T1 sequence with R250E, K264E"}, "TrfA T105E": {"molecular_target": "T3, TrfA T105E (plasmid RK2, UniProt P07676 98-382, T105E;G254D;S267L)", "T3 sequence": "T1 sequence with T8E, K264E"}, "TrfA N234E": {"molecular_target": "T4, TrfA N234E (plasmid RK2, UniProt P07676 98-382, N234E;G254D;S267L)", "T4 sequence": "T1 sequence with N137E, K264E"}}, "note": "Numbering of substitutions follows the chain as printed.", "data": [{"binder": "B1", "values": [{"measurement": "binding result", "setting": "TrfA E361K", "value": "binds"}, {"measurement": "binding result", "setting": "TrfA R347E", "value": "no binding"}, {"measurement": "binding result", "setting": "TrfA T105E", "value": "binds"}, {"measurement": "binding result", "setting": "TrfA N234E", "value": "no binding"}]}]}
